Assay results published in article PMC7510528 (Cell, 2020).

Target: T1, RBD-Fc (RBD-SD1 part of SARS-CoV2-S1, amino acids 319-591, fused to the constant region of rabbit IgG1 heavy … (SARS-CoV-2 (reference sequence, …, UniProt P0DTC2)))
T1 construct: source: HEK293T, cell culture supernatant, immobilized onto plates via anti-rabbit IgG
Assay: ELISA
Conditions: partners not purified

B1: HK CV07-202 (antibody, V domains shown)
VH: EVQLVESGGGLIQPGGSLRLSCAASGFTVSSNYMSWVRQAPGKGLEWISVIYSGGSTFYADSVKGRFTISRDNSKNTLYLQMNSLRAEDTAVYYCARDLYYYGMDVWGQGTTVTVSS
VL: DIQLTQSPSFLSASVGDRVTITCRASQGISSYLAWYQQKPGKAPKLLIYAASTLQSGVPSRFSGSGSGTEFTLTISSLQPEDFATYYCQQLNNYSVTFGGGTKVEIK
- binding result: binds
